Measured values as given in IntAct's records for PubMed 19277847.

B1: Junctophilin-2 (Mus musculus), Q9ET78 (parent)
chain: MSGGRFDFDDGGAYCGGWEGGKAHGHGLCTGPKGQGEYSGSWNFGFEVAGVYTWPSGNTFEGYWSQGKRHGLGIETKGRWLYKGEWTHGFKGRYGIRQSTNSGAKYEGTWNNGLQDGYGTETYADGGTYQGQFTNGMRHGYGVRQSVPYGMAVVVRSPLRTSLSSLRSEHSNGTVAPDSPAADGPMLPSPPVPRGGFALTLLATAEAARPQGLFTRGTLLGRLRRSESRTSLGSQRSRLSFLKSELSSGASDAASTGSLAEGAEGPDDAAAPFDADIDATTTETYMGEWKNDKRSGFGVSERSSGLRYEGEWLDNLRHGYGRTTLPDGHREEGKYRHNVLVKGTKRRVLPLKSSKVRQKVEHGVEGAQRAAAIARQKAEIAASRTSHAKAKAEAAEQAALAANQESNIARTLAKELAPDFYQPGPEYQKRRLLQEILENSESLLEPPERGLGTGLPERPRESPQLHERETPQPEGGPPSPAGTPPQPKRPRPGASKDGLLSPGSWNGEPGGEGSRPATPSDGAGRRSPARPASEHMAIEALQPPPAPSQEPEVAMYRGYHSYAVRTGPPEPPPLEDEQEPEPEPEPEVRRSDSAPPSPVSATVPEEEPPAPRSPVPAKQATLEPKPIVPKAEPKAKARKTEARGLSKAGAKKKGRKEVAQAKEAEVEVEEVPNTVLICMVILLNIGLAILFVHLLT
partner: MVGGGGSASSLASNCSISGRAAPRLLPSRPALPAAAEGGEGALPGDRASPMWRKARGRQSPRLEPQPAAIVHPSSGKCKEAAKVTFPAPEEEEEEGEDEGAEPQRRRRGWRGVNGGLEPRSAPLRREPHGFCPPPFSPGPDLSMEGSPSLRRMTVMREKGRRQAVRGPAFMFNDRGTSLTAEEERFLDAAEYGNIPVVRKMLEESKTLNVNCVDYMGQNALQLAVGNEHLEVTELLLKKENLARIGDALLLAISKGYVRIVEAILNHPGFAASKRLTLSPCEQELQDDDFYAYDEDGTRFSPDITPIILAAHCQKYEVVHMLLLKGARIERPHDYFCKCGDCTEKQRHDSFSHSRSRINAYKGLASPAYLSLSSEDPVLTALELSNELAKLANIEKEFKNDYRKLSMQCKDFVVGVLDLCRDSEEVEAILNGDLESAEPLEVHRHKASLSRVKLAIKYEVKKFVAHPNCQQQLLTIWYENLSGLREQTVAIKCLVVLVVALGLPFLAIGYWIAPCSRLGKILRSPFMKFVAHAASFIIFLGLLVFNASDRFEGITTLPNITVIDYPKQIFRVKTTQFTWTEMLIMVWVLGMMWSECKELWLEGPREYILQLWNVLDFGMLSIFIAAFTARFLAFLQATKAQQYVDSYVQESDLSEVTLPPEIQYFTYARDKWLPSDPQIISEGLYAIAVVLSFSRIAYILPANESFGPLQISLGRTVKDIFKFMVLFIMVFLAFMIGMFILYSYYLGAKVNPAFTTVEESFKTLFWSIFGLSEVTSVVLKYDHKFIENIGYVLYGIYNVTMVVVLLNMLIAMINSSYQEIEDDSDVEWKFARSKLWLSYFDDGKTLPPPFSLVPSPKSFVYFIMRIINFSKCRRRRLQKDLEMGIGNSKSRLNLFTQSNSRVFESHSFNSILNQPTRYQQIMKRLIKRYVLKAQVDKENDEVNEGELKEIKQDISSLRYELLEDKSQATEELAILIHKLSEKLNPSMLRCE

Variants of: B1
Conditions: with TRPC3, G1U2U3

| Variant | effect of a mutation on the interaction |
| --- | --- |
| R216A | decreasing interaction |
| R222A | decreasing interaction |
| E227A | decreasing interaction |
